{"source": "paper PMC7489885", "about": "(Cell, 2020)", "biological_target": "SARS-CoV-2 RBD (residues 319-541) with an N-terminal His6 tag (SARS-CoV-2, UniProt P0DTC2)", "assay": "crystal structure"}
{"binder": "BD-236 Fab (Fab, V domains shown) VH: EVQLVESGGGLIQPGGSLRLSCAASGITVSSNYMSWVRQAPGKGLEWVSVIYSGGSTDYADSVKGRFTISRDKSKNTLYLQMNSLRAEDTAVYYCARDLGEAGGMDVWGQGTTVTVSS VL: AIQLTQSPSSLSASVGDRVTITCRASQGISSYLAWYQQKPGKAPKLLIYAASTLQSGVPSRFSGSGSGTDFTLTISSLQPEDFATYYCQQLNSYPPAFGGGTKVEIK", "values": [{"measurement": "binding result", "result": "binds"}]}
